Here are results for 1 substance from patent publication US20220306759A1.

pKd: −log10 of the molar value.

The target in assay [1] is human CD71 (transferrin receptor protein 1, TfR1) on human cell lines (human) (UniProt P02786). The experiment in a line: FACS on H292 cells; isotype ADC control.
Assay [2] shares this target. The experiment in a line: FACS on H292 cells; isotype ADC control, curve fit with Bmax of only 10.64 MFI.

Chain of human CD71 (transferrin receptor protein 1, TfR1) on human cell lines (human) (P02786 whole entry): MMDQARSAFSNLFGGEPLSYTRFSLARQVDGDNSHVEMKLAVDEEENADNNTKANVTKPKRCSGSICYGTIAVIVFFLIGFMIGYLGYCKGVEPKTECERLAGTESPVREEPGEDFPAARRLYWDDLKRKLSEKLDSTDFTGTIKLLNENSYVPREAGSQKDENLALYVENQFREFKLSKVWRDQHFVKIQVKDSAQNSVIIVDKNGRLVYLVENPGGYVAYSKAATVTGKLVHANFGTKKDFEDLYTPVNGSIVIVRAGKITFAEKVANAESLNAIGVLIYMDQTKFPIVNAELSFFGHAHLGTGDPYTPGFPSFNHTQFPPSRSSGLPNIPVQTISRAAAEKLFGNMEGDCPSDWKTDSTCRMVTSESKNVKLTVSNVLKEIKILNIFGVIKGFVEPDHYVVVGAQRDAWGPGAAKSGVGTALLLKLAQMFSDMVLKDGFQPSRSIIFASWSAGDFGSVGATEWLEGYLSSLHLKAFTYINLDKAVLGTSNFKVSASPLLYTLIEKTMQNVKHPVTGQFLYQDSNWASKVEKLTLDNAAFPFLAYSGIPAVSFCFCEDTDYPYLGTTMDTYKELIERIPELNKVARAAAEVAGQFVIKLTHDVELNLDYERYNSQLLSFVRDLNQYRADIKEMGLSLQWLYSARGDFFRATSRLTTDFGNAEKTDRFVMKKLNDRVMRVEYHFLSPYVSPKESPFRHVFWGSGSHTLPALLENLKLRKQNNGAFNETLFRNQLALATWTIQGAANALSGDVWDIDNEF

Take “isotype ADC control (palivizumab-vc-MMAE) (antibody)”: the Bmax (MFI) in assay [1] worked out at 10.6 MFI. The pKd (as a rule, the Kd on a negative log10 scale, so that one unit is a factor of ten) in assay [2] is 7.24.
